Assay results: patent US20160108118A1

Key:
[1] = biological target: His (control coat of Table 2); assay: phage ELISA
[2] = biological target: α-myc (anti-myc antibody coated as second antigen); assay: phage ELISA

Binder | OD490 [1] | OD490 [2]
scFv-phage clone 9E (scFv, part only; not given: scFv linker and domain order, part only) scFv, part: QVQLVESGGGVVQPGRSLRLSCAASGFTFSSYGMHWVRQAPGKGLEWVAVISYDGNNKYYVDSVKGRFTISRDNSKNTLYLQMNSLRSEDTAVYYCARDSGSYLDWYFDLWGRGTLVTVSSQPPSVSVAPGKTARIACGGGNIGDKSVHWYQQKPGQAPVLVIFYDSDRPSGIPKRLSGSNSGNTATLTISRVEAGDEGDYYCQVWDSSSDRPVFGGGTKLTVLG | 0.043 | 2.01
scFv-phage clone 10D (scFv) scFv: QVQLVQSGGGVVQPGRSLRLSCAASGFTFSSYGMHWVRQAPGKGLEWVAVISYDGSNKYYADSVKGRFTISRDNSKNTLYLQMNSLRSEDTAVYYCARDKRAAFDIWGQGKMVTVSSGLGGLGGGGSGGGGSGGSSGVGSSYELTQAPSLSVSPGQTANIICSGDNLRTKYVSWYQQKPGQSPLLVIYQDTRRPSGIPARFSGSNSGNTATLTISGTQTERESTYYCMTWDVDTTSMIFGGGTKLTVL |  | 3.02
scFv-phage clone 12D (scFv, part only; not given: scFv linker and domain order, part only) scFv, part: QVQLVQSGGGVVQPGRSLRLSCVASAFTFSRYGMHWVRQAPGKGLEWVALISYDGSSEYYADSVKGRFNISRDNSKNTVYLQMNSLRAEDTAVYYCVKDGLAAKLGHWGQGTLVTVSSQAPSLSVSPGQTANIICSGDNLRTKYVSWYQQKPGQSPLLVIYQDTRRPSGIPARFSGSNSGNTATLTISGTQTERESTYYCMTWDVDTTSMIFGGGTKLTVLG | 0.049 | 0.888
